Laboratory results reported in PMC5486983.

Substrate: O=C(O)c1c[nH]c2ccccc12
Test: LC-MS of adenylate
Assay type: biochemical, Caenorhabditis elegans
Conditions: with ATP and coenzyme A; adenylate formed, no CoA ester

B1: ACS-7 (Caenorhabditis elegans) (protein)
chain: MIFHGEQLENHDKPVHEVLLERFKVHQEKDPDNVAFVTAENEDDSLGFQQLGKKVLQISEWFVENGYKKGDVFLLASYNNWRCFAAALGAWRAGLIVSAAASQFTSFEMNYQIEDSQSQVILVDKHTLPVVQEACKNLKFVKQIISISANPPSPVIKFDVLTSRLVRNLKMPLIDPKNDIVFLPYSSGTTGKPKGVMISHLNFSMMLESSLRFFDANAKAIGLPPDFVLPYDLHFLPMYHAMGMFRTLLTSYRGTTQIMFTKFDMELMLKNIEKYSIMVLSLVPAIAVRMLNSPLLQKYDVSSLVSVTVGSAPFPESASKKLKQLLPNVNIVQGYGMTELTFATHLQSPGSPDGSVGRLVPGTSMKVKKEDGTLCGPHEIGELWIKGPQMMKGYWKKEQQTNELLDEHGFMRTGDIVYFDKNGETFICDRIKELIKVNAKQVAPAELESVILEHDDVADVCVFGVDDASSGERPVACVVSKRGRDMETSKAIMKHINQKLARYKHIKEIEFVSEIMRTGTGKLLRRAMKKAFLDAKKAKL
- Km: 270 ± 90 µM
